Measured values published in paper PMC5639936 (Nature plants, 2017).

T1: SHR-SCR complex (SHR 59-531 with SCR 275-653) (Arabidopsis thaliana, UniProt Q9SZF7 59-531; Q9M384 275-653)
T1 sequence (looked up) 1: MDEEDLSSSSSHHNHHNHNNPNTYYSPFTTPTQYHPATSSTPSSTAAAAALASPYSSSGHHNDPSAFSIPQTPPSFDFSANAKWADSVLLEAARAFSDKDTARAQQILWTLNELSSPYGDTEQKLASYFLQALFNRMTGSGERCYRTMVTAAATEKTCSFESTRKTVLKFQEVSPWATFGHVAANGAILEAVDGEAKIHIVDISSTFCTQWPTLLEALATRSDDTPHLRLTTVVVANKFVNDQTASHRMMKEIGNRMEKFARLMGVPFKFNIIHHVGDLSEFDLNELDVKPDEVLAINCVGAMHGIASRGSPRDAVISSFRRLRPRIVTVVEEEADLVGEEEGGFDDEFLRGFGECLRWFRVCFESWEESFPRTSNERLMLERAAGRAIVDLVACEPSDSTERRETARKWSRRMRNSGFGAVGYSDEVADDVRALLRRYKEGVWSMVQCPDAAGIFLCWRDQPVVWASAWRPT
T1 sequence (looked up) 2: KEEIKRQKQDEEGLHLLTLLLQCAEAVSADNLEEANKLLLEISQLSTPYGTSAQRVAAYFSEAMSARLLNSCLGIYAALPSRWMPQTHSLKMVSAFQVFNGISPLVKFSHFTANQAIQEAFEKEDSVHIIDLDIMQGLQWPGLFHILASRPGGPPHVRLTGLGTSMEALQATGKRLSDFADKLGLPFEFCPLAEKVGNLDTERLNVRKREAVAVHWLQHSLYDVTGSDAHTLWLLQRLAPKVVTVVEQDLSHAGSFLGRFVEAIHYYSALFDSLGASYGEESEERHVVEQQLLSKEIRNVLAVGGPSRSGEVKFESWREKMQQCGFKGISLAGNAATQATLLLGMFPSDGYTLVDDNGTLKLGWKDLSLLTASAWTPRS


Experiments:
[1] = target: T1, SHR-SCR complex (SHR 59-531 with SCR …); assay: ITC
AUC = target: the molecule itself; assay: AUC

Row | Kd [1] [nM] | dH [1] [kcal/mol] | stoichiometry N [1] | Binder | stoichiometry N (AUC)
1 | 124 ± 81.7 | -1.29 ± 0.03 | 0.6 ± 0.01 | JKD/IDD10 ZF3-ZF4 (residues 155-224) (domain or fragment, Arabidopsis thaliana, UniProt Q700D2 155-224, looked up) GEKKWKCEKCSKKYAVQSDWKAHAKTCGTREYKCDCGTLFSRKDSFITHRAFCDALTEEGARMSSLSNNN | 
2 | 35.5 ± 11.2 | 2.59 ± 0.02 | 0.81 ± 0.003 | MGP/IDD3 ZF3-ZF4 (residues 143-221) (domain or fragment, Arabidopsis thaliana, UniProt Q9ZWA6 143-221, looked up) EKKWKCEKCAKRYAVQSDWKAHSKTCGTREYRCDCGTIFSRRDSFITHRAFCDALAEETARLNAASHLKSFAATAGSNL | 
3 |  |  |  | AtSCL3 (natural protein, Arabidopsis, UniProt Q9LPR8 1-482, looked up) MVAMFQEDNGTSSVASSPLQVFSTMSLNRPTLLASSSPFHCLKDLKPEERGLYLIHLLLTCANHVASGSLQNANAALEQLSHLASPDGDTMQRIAAYFTEALANRILKSWPGLYKALNATQTRTNNVSEEIHVRRLFFEMFPILKVSYLLTNRAILEAMEGEKMVHVIDLDASEPAQWLALLQAFNSRPEGPPHLRITGVHHQKEVLEQMAHRLIEEAEKLDIPFQFNPVVSRLDCLNVEQLRVKTGEALAVSSVLQLHTFLASDDDLMRKNCALRFQNNPSGVDLQRVLMMSHGSAAEARENDMSNNNGYSPSGDSASSLPLPSSGRTDSFLNAIWGLSPKVMVVTEQDSDHNGSTLMERLLESLYTYAALFDCLETKVPRTSQDRIKVEKMLFGEEIKNIISCEGFERRERHEKLEKWSQRIDLAGFGNVPLSYYAMLQARRLLQGCGFDGYRIKEESGCAVICWQDRPLYSVSAWRCRK | 2
